Laboratory results published in patent US20080166345A1, “MEDICAMENTS COMPRISING GENE RECOMBINANT ANTIBODY AGAINST GANGLIOSIDE GD3” (KYOWA HAKKO KOGYO CO., LTD., priority 2001, published 2008).

Test: GD3 binding ELISA of transient expression (COS-7) culture supernatants
Conditions: COS-7 culture supernatant; FIG. 14, FIG. 17
Procedure: Each ganglioside (2 nmol) was dissolved in […] of ethanol solution containing 10 μg of dipalmitoylphosphatidylcholine (manufactured by SIGMA) and 5 μg of cholesterol (manufactured by SIGMA). In each well of a 96 well plate for ELISA (manufactured by Greiner), 20 μl of the solution (becomes 20 pmol/well) or 20 μl of the solution diluted with ethanol was respectively dispensed, followed by air-drying, and then PBS containing 1% BSA (hereinafter referred to as “1% BSA-PBS”) was added in 100 μl/well and allowed to react at room temperature for 1 hour to thereby block remaining active groups. After discarding 1% BSA-PBS, culture supernatants of transformants or diluted solutions of humanized antibodies were added in 50 μl/well and allowed to react at room temperature for 1 hour. […] After the reaction and subsequent washing with Tween-PBS, an ABTS substrate solution (a solution prepared by dissolving 0.55 g of 2,2′-azinobis(3-ethylbenzothiazoline-6-sulfonic acid) in 1 L of 0.1 M citrate buffer (pH 4.2) and adding 1 μl/ml hydrogen peroxide just before the use) was added in 50 μl/well for color development and the absorbance at 415 nm (hereinafter referred to as “OD415”) was measured. […]

B1: pT641HLCDR: anti-GD3 CDR-grafted antibody by transient expression; VH hKM641H (SEQ ID NO:9), VL hKM641L (SEQ ID NO:10) (antibody, V domains shown)
VH: EVQLVESGGDFVQPGGSLRVSCAASGFAFSHYAMSWVRQAPGKGLEWVAYISSGGSGTYYSDSVKGRFTISRDNSKNTLYLQMRSLRAEDSAVYFCTRVKLGTYYFDSWGQGTLLTVSS
VL: DIQMTQSPSSLSASVGDRVTITCSASQDISNYLNWYQQKPDKAPKLLIFYSSNLHSGVPSRFSGGGSGTDYTLTISSLQPEDIATYFCHQYSKLPWTFGQGTKVEIKR
relative activity (%) of binding to GD3 when the activity of anti-GD3 chimeric antibody is defined as 100: about 5%
